Measurements as given in paper PMC12744750 (Plant Communications, 2025).
Each block holds one molecule with its values, some of them ahead of it. Ends that are not written are not given here.

T1: ETR1 1-407 (Arabidopsis thaliana)
T1 chain: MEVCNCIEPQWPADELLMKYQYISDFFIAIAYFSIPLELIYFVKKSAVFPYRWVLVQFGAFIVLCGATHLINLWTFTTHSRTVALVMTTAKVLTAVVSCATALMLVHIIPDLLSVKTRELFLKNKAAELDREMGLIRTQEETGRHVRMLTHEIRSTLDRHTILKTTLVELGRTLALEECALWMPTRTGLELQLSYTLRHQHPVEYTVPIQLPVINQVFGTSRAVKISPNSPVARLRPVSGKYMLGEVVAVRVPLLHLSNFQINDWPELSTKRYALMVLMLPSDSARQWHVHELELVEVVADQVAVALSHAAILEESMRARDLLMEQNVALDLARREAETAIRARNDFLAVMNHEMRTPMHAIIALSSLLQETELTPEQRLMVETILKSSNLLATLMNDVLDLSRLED

T2: ETR1 1-598 (Arabidopsis thaliana)
T2 chain: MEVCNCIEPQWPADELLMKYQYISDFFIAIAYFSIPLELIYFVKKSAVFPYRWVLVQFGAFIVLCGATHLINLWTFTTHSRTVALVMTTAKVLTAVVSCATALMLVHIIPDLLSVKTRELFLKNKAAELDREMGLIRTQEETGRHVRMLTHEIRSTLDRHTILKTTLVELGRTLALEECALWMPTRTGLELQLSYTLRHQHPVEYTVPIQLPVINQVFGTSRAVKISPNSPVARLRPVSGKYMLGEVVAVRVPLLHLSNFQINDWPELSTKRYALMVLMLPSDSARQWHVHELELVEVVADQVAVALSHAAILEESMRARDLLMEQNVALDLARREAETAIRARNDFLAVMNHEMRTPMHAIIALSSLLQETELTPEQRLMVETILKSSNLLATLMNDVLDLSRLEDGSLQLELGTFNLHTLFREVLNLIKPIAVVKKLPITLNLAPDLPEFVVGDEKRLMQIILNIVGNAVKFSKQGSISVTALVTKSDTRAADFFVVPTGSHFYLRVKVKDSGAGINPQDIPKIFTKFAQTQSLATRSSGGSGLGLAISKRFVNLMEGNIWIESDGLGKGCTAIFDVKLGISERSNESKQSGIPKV

T3: ETR1 1-157 (Arabidopsis thaliana)
T3 chain: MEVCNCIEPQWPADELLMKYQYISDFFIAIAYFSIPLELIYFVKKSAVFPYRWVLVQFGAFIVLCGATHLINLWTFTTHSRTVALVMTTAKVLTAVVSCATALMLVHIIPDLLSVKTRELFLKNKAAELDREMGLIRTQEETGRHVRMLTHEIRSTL

T4: ETR1 1-307 (Arabidopsis thaliana)
T4 chain: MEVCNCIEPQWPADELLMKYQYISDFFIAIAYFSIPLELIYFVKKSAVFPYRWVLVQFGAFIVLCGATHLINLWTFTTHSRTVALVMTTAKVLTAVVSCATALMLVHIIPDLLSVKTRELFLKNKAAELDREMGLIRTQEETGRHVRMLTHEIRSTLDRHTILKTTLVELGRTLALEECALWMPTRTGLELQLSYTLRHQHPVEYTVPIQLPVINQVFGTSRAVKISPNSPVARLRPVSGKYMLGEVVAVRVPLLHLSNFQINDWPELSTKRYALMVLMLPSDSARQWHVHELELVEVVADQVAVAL

B1: PLS linked to a C-terminal GFP (PLS:GFP), pro35S::PLS:GFP (peptide, UniProt Q8LLV8 1-36, looked up)
chain: MKPRLCFNFRRRSISPCYISISYLLVAKLFKLFKIH-{GFP}
modifications: cysteine pairing not given here
notes: POLARIS (PLS) peptide of Arabidopsis thaliana, gene AT4G39403; the PLS gene without the stop codon (printed as 105 bp) in pEarlyGate103; source: N. benthamiana leaves, transient expression by Agrobacterium infiltration, in protein extract; not shown: GFP, C-terminal, kept
B2: ETR1 with a C-terminal HA tag (ETR1:HA), pro35S::ETR1:HA (receptor, Arabidopsis, UniProt P49333 1-738, looked up)
chain: MEVCNCIEPQWPADELLMKYQYISDFFIAIAYFSIPLELIYFVKKSAVFPYRWVLVQFGAFIVLCGATHLINLWTFTTHSRTVALVMTTAKVLTAVVSCATALMLVHIIPDLLSVKTRELFLKNKAAELDREMGLIRTQEETGRHVRMLTHEIRSTLDRHTILKTTLVELGRTLALEECALWMPTRTGLELQLSYTLRHQHPVEYTVPIQLPVINQVFGTSRAVKISPNSPVARLRPVSGKYMLGEVVAVRVPLLHLSNFQINDWPELSTKRYALMVLMLPSDSARQWHVHELELVEVVADQVAVALSHAAILEESMRARDLLMEQNVALDLARREAETAIRARNDFLAVMNHEMRTPMHAIIALSSLLQETELTPEQRLMVETILKSSNLLATLMNDVLDLSRLEDGSLQLELGTFNLHTLFREVLNLIKPIAVVKKLPITLNLAPDLPEFVVGDEKRLMQIILNIVGNAVKFSKQGSISVTALVTKSDTRAADFFVVPTGSHFYLRVKVKDSGAGINPQDIPKIFTKFAQTQSLATRSSGGSGLGLAISKRFVNLMEGNIWIESDGLGKGCTAIFDVKLGISERSNESKQSGIPKVPAIPRHSNFTGLKVLVMDENGVSRMVTKGLLVHLGCEVTTVSSNEECLRVVSHEHKVVFMDVCMPGVENYQIALRIHEKFTKQRHQRPLLVALSGNTDKSTKEKCMSFGLDGVLLKPVSLDNIRDVLSDLLEPRVLYEGM
notes: the ETR1 cDNA in pEarlyGate301; also called ETHYLENE RESPONSE 1; source: N. benthamiana leaves, transient expression by Agrobacterium infiltration, in protein extract; not shown: HA, C-terminal, kept

Key:
pPLS::GUS = pPLS::GUS expression in root tips after hormone treatment; type: in vivo, Arabidopsis; conditions: 10 µM ACC plus 10 μM 2,4-D
From the text: Figure S15. The link between auxi n and et hyl ene si gnal l i ng ef f ect s on PLS transcription, and downstream ef f ect s on et hyl ene responses.
(A) Ant agoni sm between auxi n and et hyl ene on PLS expressi on.
Auxin posit ively regulates PLS gene transcription, whi l e ACC (ethylene pr ecur sor ) […]
Lef t upper panel: pPLS::GUS […]
expr ession in the Arabidopsis root tip under standard gr owt h conditions. Lef t lower panel: pPLS::PLS:GFP expr ession in the Arabidopsis root tip under standard gr owt h conditions.
Ri ght panel: pPLS::GUS expr ession in root tips treated wi t h 10 μM 2,4-D, showing ect opic […]
10 μM 2,4-D plus 10 μm ACC, showing the ant agonism of the inductive eff ect of 2,4-D on PLS::GUS expr ession. Images ar e representative of 10 independently gr own roots. […]

pPLS::PLS:GFP = assay: PLS:GFP fluorescence in root tip after ACC treatment; type: in vivo, Arabidopsis; conditions: 0, 1 or 10 μM ACC, 2 or 24 hours, n = 17
From the text: Figur e S15. The link between auxin and ethylene signalling effects on PLS transcription, and downstr eam effects on […]
in the root tip after ACC treatment. […]
Laser settings were mai nt ai ned at 21% 488 nm 20 mW, 970 V gain.
Images are representative of 10 independetly grown roots. Scale bars […]
Lower panel: Quanti fi cati on of PLS-GFP fluorescence after ACC treatment, detected in seedlings expressing the pPLS::PLS:GFP construct. Seedling root tips at seven d.a.g were imaged by CLSM after treatment with 0, 1 or 10 μM ACC for either 2 or 24 hours.
Fl uorescence intensity in each root was measured using ImageJ and the mean intensity for each treatment was calculated. Error bars show
± 1 standard error, n = 17.

ETR1 1-407 = target: T1, ETR1 1-407; assay: MST
ETR1 1-598 = target: T2, ETR1 1-598; assay: MST
ETR1 1-157 = target: T3, ETR1 1-157; assay: MST
ETR1 1-307 = target: T4, ETR1 1-307; assay: MST
[1] = target: B2; assay: co-IP; anti-HA beads on protein extract of N. benthamiana leaves co-expressing ETR1:HA and PLS:GFP or GFP, 3 days after infiltration; blot with anti-GFP; with 0.5 μM CuSO4 or 2 mM EDTA added to the extract; conditions: partners not purified
[2] = target: B1; assay: co-IP; anti-GFP beads on protein extract of N. benthamiana leaves co-expressing PLS:GFP and ETR1:HA; blot with anti-HA; with or without EDTA; conditions: partners not purified

Molecule: NC1(C(=O)O)CC1 [ACC, 1-aminocyclopropane-1-carboxylic acid]
effect on auxin-induced PLS expression (pPLS::GUS): ant agonizes the inductive eff ect s of auxin | expression of PLS:GFP in root tip (pPLS::PLS:GFP): downr egulated

Kd (ETR1 1-407): 1650 nM | Kd (ETR1 1-598): 2920 nM | Kd (ETR1 1-157): 1520 nM | Kd (ETR1 1-307): 1780 nM
Molecule: MKPRLCFNFRRRSISPCYISISYLLVAKLFKLFKIH (cysteine pairing not given here; also: fluorescently labelled) [synthetic full-length POLARIS (PLS) peptide, PLS(FL)]

Molecule: B1
fold co-precipitated with 0.5 μM copper sulfate against 2 mM EDTA [1]: ~3 fold

Molecule: B2
fold co-precipitated with 0.5 μM copper sulfate against 2 mM EDTA [2]: ~3 fold
